Laboratory results from article PMC3338918.
Values belong to the binder of their own block, whether it stands above or below them.

Experiments:
human VEGFR1-hFc (human) = human VEGFR1-hFc (human) (UniProt P17948)
[1] = molecular target: VEGF Trap (aflibercept) (human); test: SPR; Biacore 3000, CM5 chip, 25°C, HBS-T (10 mM Hepes, 150 mM NaCl, 3.4 mM EDTA, 0.05% polysorbate 20, pH 7.4); VEGF Trap or receptor-Fc captured at low density on amine-coupled Protein A, ligands injected (1.0–0.062 nM VEGF-A, 2.5–0.156 nM VEGF-B(10-108), 5.0–0.078 nM PlGF); kd of VEGF-A ligands by the 'fixed kd' procedure on a Biacore 2000 (~2–3 h); KD = kd/ka
[2] = molecular target: VEGF Trap (aflibercept) (human); test: KinExA solution equilibrium assay; KinExA 3000, room temperature (25°C); VEGF Trap (1–50 pM) equilibrated 10–96 h with varying ligand; unbound inhibitor captured on VEGF-A165-coupled Azlactone beads and detected with Cy5 anti-human IgG; one-site homogeneous binding model

VEGF Trap (aflibercept) (human), sequence (chain, INN chains, looked up, as listed by the source): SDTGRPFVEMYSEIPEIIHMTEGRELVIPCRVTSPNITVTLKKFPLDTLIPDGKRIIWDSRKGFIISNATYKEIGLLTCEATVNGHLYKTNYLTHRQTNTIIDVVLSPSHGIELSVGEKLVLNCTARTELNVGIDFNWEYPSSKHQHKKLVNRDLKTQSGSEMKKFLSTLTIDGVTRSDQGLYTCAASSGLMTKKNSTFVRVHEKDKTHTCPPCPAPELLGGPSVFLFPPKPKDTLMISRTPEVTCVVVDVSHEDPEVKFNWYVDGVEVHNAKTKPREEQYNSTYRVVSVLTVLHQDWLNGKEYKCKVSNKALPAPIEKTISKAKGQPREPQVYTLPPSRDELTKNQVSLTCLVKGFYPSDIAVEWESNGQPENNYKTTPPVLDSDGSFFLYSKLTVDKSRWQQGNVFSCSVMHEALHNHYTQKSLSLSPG
human VEGFR1-hFc (human), sequence (P17948 27-758): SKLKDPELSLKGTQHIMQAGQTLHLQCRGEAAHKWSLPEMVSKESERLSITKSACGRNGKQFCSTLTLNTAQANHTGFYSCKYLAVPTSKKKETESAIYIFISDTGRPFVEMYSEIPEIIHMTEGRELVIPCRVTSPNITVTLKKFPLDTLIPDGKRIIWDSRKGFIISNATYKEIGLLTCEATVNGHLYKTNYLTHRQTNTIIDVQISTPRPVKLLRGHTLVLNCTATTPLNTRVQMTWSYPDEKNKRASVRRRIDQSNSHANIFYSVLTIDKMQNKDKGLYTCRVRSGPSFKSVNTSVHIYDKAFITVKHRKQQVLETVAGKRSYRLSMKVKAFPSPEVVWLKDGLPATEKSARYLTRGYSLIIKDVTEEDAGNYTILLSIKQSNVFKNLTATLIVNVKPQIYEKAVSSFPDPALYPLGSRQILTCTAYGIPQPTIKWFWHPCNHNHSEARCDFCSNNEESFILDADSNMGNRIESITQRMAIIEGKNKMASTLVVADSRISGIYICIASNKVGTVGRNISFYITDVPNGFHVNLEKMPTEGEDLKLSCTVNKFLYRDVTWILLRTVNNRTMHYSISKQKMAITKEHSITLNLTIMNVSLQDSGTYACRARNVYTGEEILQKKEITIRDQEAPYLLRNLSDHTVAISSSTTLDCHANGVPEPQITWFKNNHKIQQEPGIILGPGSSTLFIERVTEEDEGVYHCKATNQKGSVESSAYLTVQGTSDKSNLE

- EC50 of luciferase activation in HEK293/VEGFR1 cells (dose response, 0.022 pM to 4.0 nM) (human VEGFR1-hFc (human)): 10 pM
- Kd [1]: 0.00332 nM
B1: murine PlGF-2 (ligand)
chain: VHSQGALSAGNNSTEVEVVPFNEVWGRSYCRPMEKLVYILDEYPDEVSHIFSPSCVLLSRCSGCCGDEGLHCVPIKTANITMQILKIPPNRDPHFYVEMTFSQDVLCECRPILETTKAERRKTKGKRKRSRNSQTEEPHP

- EC50 of luciferase activation in HEK293/VEGFR1 cells (dose response, 0.022 pM to 4.0 nM) (human VEGFR1-hFc (human)): 29 pM
- Kd [2]: 0.0207 nM
- Kd [1]: 0.0389 nM
- koff [1]: 6.81e-05 s⁻¹
- kon [1]: 1.75e+06 M⁻¹ s⁻¹
B2: human PlGF-2 (ligand)
chain: LPAVPPQQWALSAGNGSSEVEVVPFQEVWGRSYCRALERLVDVVSEYPSEVEHMFSPSCVSLLRCTGCCGDENLHCVPVETANVTMQLLKIRSGDRPSYVELTFSQHVRCECRPLREKMKPERRRPKGRGKRRREKQRPTDCHLCGDAVPRR
